Assay results published in patent US20170101466A1 (published 2017).
Values belong to the binder of their own block, whether it stands above or below them.

Legend:
[1] = molecular target: T1, soluble human BLyS (human, UniProt Q9Y275 134-285); assay: blocking of biotinylated soluble hBLyS binding to immobilized mBR3
T1 construct: also called hBLyS; human BAFF (BLyS)

[2] = molecular target: T2, soluble mouse BLyS (mouse, UniProt Q9WU72 127-309); assay: Biacore T100, binder captured by anti-human Fc, BLyS injected, 1:1 model
T2 construct: europium-labelled in DELFIA; also called mBLyS; mouse BAFF (BLyS)
Procedure: (§1) A Series S CM5 Chip (GE Healthcare) was amine coupled with an anti-human Fc capturing antibody (GE Healthcare Human Fc Kit) to >10,000 RUs. Sample antibodies were diluted in 1×HBS-EP+ running buffer to 0.15 ug/mL and injected for 45 seconds at 10 uL/min. […] Biacore Evaluation software was used to fit the data to a 1:1 Binding Model.

[3] = molecular target: T2, soluble mouse BLyS; assay: ELISA, soluble mBLyS
[4] = molecular target: T1, soluble human BLyS; assay: Biacore T100, binder captured by anti-human Fc, BLyS injected, 1:1 model
Procedure: as §1

[5] = molecular target: T1, soluble human BLyS; assay: DELFIA competition, Eu-hBLyS binding to coated TACI
Procedure: (§2) After 5× washing with 200 ul/well of DELFIA 1× wash solution (PE, Cat #4010-0010), plates were blocked with 3% BSA purified from trace heavy metal amounts (PE, Cat #CR84-100) for 3 hours with shaking at room temperature. Plates were washed again five times at 200 μl/well with DELFIA wash solution.
(§3) The final 3 wells across the plate served as controls (2 wells contained 2,000 pM mAbs for negative and background controls while the third contained no mAbs for positive control). […] After 18-24 hrs at 4° C., plates were read on PE EnVision plate reader with laser excitation, LANCE/DELFIA top mirror, and emission filter Eu-615 with a delay of 400 μs. Data were fit to four parameter (variable slope) inhibition dose response curve using GraphPad PRISM 5.0 software.

[6] = molecular target: T3, mouse APRIL (mouse, UniProt Q9D777 96-241, limits assumed); assay: Biacore, antibody captured, APRIL injected
T3 construct: Bought recombinant protein; also called mAPRIL
T3 sequence (looked up): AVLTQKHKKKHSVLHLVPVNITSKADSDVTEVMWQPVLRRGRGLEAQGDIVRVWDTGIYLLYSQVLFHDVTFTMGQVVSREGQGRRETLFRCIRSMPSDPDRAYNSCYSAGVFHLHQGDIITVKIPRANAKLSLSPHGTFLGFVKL
Procedure: (§4) Recombinant protein NG (Thermo Scientific, Cat #21186) was diluted to 100 μg/ml in 10 mM Sodium Acetate pH 4.0 and then immobilized on the surface of a pre-activated Series S CM4 Biacore chip (GE, Cat #BR-1005-34) using amine coupling. […] Binding response was measured as the difference in total RU increase during 300 second APRIL injection of each individual flow cell and the reference flow cell (e.g., Flow cell 2-1).

[7] = molecular target: T4, human APRIL (human, UniProt O75888 105-250, limits assumed); assay: Biacore, antibody captured, APRIL injected
T4 construct: Bought recombinant protein; also called hAPRIL
T4 sequence (looked up): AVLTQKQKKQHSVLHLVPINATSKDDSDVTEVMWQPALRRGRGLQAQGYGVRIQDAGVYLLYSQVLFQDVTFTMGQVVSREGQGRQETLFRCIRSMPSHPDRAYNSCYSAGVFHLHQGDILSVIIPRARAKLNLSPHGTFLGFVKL
Procedure: as §4

[8] = molecular target: T2, soluble mouse BLyS; assay: DELFIA competition, Eu-mBLyS binding to coated TACI
Procedure: as §2, §3

[9] = molecular target: T2, soluble mouse BLyS; assay: DELFIA competition, Eu-mBLyS binding to coated BR3
Procedure: as §2, §3

[10] = molecular target: T1, soluble human BLyS; assay: Biacore, antibody captured on chip, BLyS injected, 1:1 model, 25 C
Procedure: (§5) Recombinant protein NG (Thermo Scientific, Cat #21186) was diluted to 100 μg/ml in 10 mM sodium acetate pH 4.0 and then immobilized on the surface of a pre-activated Series S CM5 Biacore chip (GE, Cat #BR-1005-34) using amine coupling. […] After the dissociation period, the chip was regenerated back to baseline by injecting 10 mM glycine pH 1.5 for 120 seconds over the four flow cells. […] The entire data set was fit to a 1:1 interaction model to give kₒₙ, koff, and Kd values. The assay was run at 25° C. in 1× biacore running buffer HBS-EP+ (GE, Cat #BR-1006-69).

[11] = molecular target: T2, soluble mouse BLyS; assay: as above
Procedure: as §5

[12] = molecular target: T2, soluble mouse BLyS; assay: DELFIA competition, Eu-mBLyS binding to coated BCMA
Procedure: as §2, §3

[13] = molecular target: T1, soluble human BLyS; assay: DELFIA competition, Eu-hBLyS binding to coated BCMA
Procedure: as §2, §3

[14] = molecular target: T1, soluble human BLyS; assay: DELFIA competition, Eu-hBLyS binding to coated BR3
Procedure: as §2, §3

[15] = molecular target: T1, soluble human BLyS; assay: ELISA, soluble hBLyS

B2: 5G10 IgG1 F243A/V264A double mutein expressed in Pichia pastoris (antibody, V domains shown)
VH: QMQLVQSGAEVKKPGASVKVSCKASGYTFTSYAMHWVRQAPGQRLEWMGWINAGNGNTKYSQKFQGRVTITRDTSASTAYMELSSLRSEDTAVYYCAREMAVAGTYYYYGMDVWGQGTTVTVSS
VL: DIQLTQSPSTLSASVGDRVTITCRASQSISGWLAWYQQKPGRAPKLLIYKASSLESGVPSRFSGSGSGTDFTLTISSLQPEDIATYYCQQFDNLLLMYTFGQGTKLEIRR
notes: IgG1 F243A/V264A (EU) double mutein, alpha-2,6-sialylated, from glycoengineered Pichia pastoris; also called 5G10 (D132947)
Kd [2]: 0.732 nM | koff [2]: 0.000451 s⁻¹ | kon [2]: 616000 M⁻¹ s⁻¹

B3: 5G10 IgG expressed in HEK293 cells (antibody, V domains shown)
VH: QMQLVQSGAEVKKPGASVKVSCKASGYTFTSYAMHWVRQAPGQRLEWMGWINAGNGNTKYSQKFQGRVTITRDTSASTAYMELSSLRSEDTAVYYCAREMAVAGTYYYYGMDVWGQGTTVTVSS
VL: DIQLTQSPSTLSASVGDRVTITCRASQSISGWLAWYQQKPGRAPKLLIYKASSLESGVPSRFSGSGSGTDFTLTISSLQPEDIATYYCQQFDNLLLMYTFGQGTKLEIRR
notes: IgG from HEK293-FreeStyle cells
IC50 [3]: 51 nM

B5: 6A11 IgG1 F243A/V264A double mutein expressed in Pichia pastoris (antibody, V domains shown)
VH: QIQLVQSGTEVKKPGASVKVSCKASGYTFTDYYMHWVRQAPGQGLEWMGRINPNSGGTNYAQKFQGRVTMTRDTSISTAYMELSRLRSDDTFVYYCAREGYDFLTGYTLGGMDVWGQGTTVTVSS
VL: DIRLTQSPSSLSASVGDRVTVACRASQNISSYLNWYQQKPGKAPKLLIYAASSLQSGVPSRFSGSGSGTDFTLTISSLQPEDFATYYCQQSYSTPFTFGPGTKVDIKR
notes: IgG1 F243A/V264A (EU) double mutein, alpha-2,6-sialylated, from glycoengineered Pichia pastoris; also called 6A11 (D132943)
Kd [4]: 0.905 nM | koff [4]: 0.000174 s⁻¹ | kon [4]: 192000 M⁻¹ s⁻¹ | Kd [2]: 0.121 nM | koff [2]: 0.000177 s⁻¹ | kon [2]: 1.47e+06 M⁻¹ s⁻¹

B8: 6C10 IgG1 F243A/V264A double mutein expressed in Pichia pastoris (antibody, V domains shown)
VH: EVQLVQSGAEVKKPGASVKVSCKASGYTFTSYGISWVRQAPGQGLEWMGWISAYNGNTNYAQKLQGRVTMTTDTSTSTAYMELRSLRSDDTAVYYCARTYYDILTGYYYYYGMDVWGQGTTVTVSS
VL: EIVLTQSPGTLSLSPGERAMLSCRASQSVGNYLAWYQQKPGQAPRLLIYDASNRATGIPARFSGSGSGTDFTLTINSLEPEDFAVYYCQQRSNWPLTFGGGTKVEIKR
notes: IgG1 F243A/V264A (EU) double mutein, alpha-2,6-sialylated, from glycoengineered Pichia pastoris; also called 6C10-DM; 6C10-DM (Pichia)
IC50 [5]: 0.00074 nM | Kd [4]: 0.068 nM | koff [4]: 2.5e-05 s⁻¹ | kon [4]: 368000 M⁻¹ s⁻¹ | Kd [2]: 0.232 nM | koff [2]: 0.000224 s⁻¹ | kon [2]: 967000 M⁻¹ s⁻¹ | binding result [6]: no binding (tested: 50 nM) | binding result [7]: no binding (tested: 50 nM) | IC50 [8]: 0.445 nM | IC50 [9]: > 2 nM | Kd [10]: 0.421 nM | koff [10]: 5.5e-05 s⁻¹ | kon [10]: 130000 M⁻¹ s⁻¹ | Kd [11]: 0.234 nM | koff [11]: 7.9e-05 s⁻¹ | kon [11]: 330000 M⁻¹ s⁻¹ | IC50 [12]: > 2 nM | IC50 [13]: 0.017 nM | IC50 [14]: 0.0873 nM

B9: 1B5 IgG expressed in HEK293 cells (antibody, V domains shown)
VH: QVQLQESGPGLVEPSETLSLTCTVSGGSISGRNYYWGWIRQSTGKGLEWIGSIYYSGSTYYNPSLKSRVTISVDTSKNQFSLKLSSVTAADTAVYYCARDLANYDILTGYYRARGAFDIWGQGTMVTVSS
VL: QSALTQPASVSGSPGQSITISCTGTSSDVGGYNYVSWYQQHPGKAPKLMIYDVNKRPSGVPDRFSGSKSANTASLTVSGLQAEDEADYYCSSYTAGGNWVFGGGTKLTVLG
notes: as for B3
IC50 [3]: 17 nM | IC50 [15]: 15 nM | IC50 [1]: 21 nM

Next, values leading:

IC50 [1]: > 100 nM
B1: 6F5 IgG expressed in HEK293 cells (antibody, V domains shown)
VH: EVQLVQSGAEVKKPGSSVKVSCKASGGTFSSYAISWVRQAPGQGLEWMGGISAYKGNTNYAQKLQGRVTMTTDTSTSTAYMELRSLRSEDTAVYYCARGRLAEYDILTGYYFNTWAFDIWGQGTMVTVSS
VL: QSALTQPASVSGSPGQSITISCTGTSSDVGGYNYVSWYQQHPGKAPKLMIYDVSKRPSGVSNRFSGSKSGNTASLTISGLQAEDEADYYCSSYTSSSTPVLFGGGTKLTVLG
notes: as for B3

binding result [3]: no binding
B4: 10B1 IgG expressed in HEK293 cells (antibody, V domains shown)
VH: EVQLVESGAEVKKPGASVKVSCKASGYTFTSYGISWVRQAPGQGLEWMGWISAYNGNTNYAQKLQGRVTMTTDTSTSTAYMELRSLRSDDTAVYYCARADYDILTGYPRGPVDYWGQGTLVTVSS
VL: QSALTQPPSASGSPGQSVTISCTGTSSDVGHYNYVSWYQQHPGKAPKLIIFDVSDRPSGVSNRFSGSKSGNTASLTISGLQAEDEANYYCSSYTSRNTLIFGGGTKLTVLG
notes: as for B3

IC50 [5]: < 0.0003 nM | Kd [4]: 0.049 nM | koff [4]: 5.4e-05 s⁻¹ | kon [4]: 1.11e+06 M⁻¹ s⁻¹ | Kd [2]: 0.134 nM | koff [2]: 0.000196 s⁻¹ | kon [2]: 1.46e+06 M⁻¹ s⁻¹ | binding result [6]: no binding (tested: 50 nM) | binding result [7]: no binding (tested: 50 nM) | IC50 [8]: > 2 nM | IC50 [9]: > 2 nM | Kd [10]: 0.138 nM | koff [10]: 3.5e-05 s⁻¹ | kon [10]: 260000 M⁻¹ s⁻¹ | Kd [11]: 0.099 nM | koff [11]: 5.7e-05 s⁻¹ | kon [11]: 580000 M⁻¹ s⁻¹ | IC50 [12]: > 2 nM | IC50 [13]: 1.28 nM | IC50 [14]: 0.101 nM
B6: 8D12 IgG1 F243A/V264A double mutein expressed in Pichia pastoris (antibody, V domains shown)
VH: QVQLVQSGAEVKKPGASVKVSCKASGYTFTSYAMHWVRQAPGQRLEWMGWINAGNGNTKYSQKFQGRVTITRDTSASTAYMELSSLRSEDTAVYYCARAYYDILTGYSVYGMDVWGQGTTVTVSS
VL: EIVLTQSPATLSLSPGERATLSCRANESVGNYLAWYQQKPGQAPRLLIYGASRRATGIPDRFSGSGSGTDFTLTISRLEPEDFAVYYCQQYGSSLLTFGGGTKVEIKR
notes: IgG1 F243A/V264A (EU) double mutein, alpha-2,6-sialylated, from glycoengineered Pichia pastoris; also called 8D12-DM; 8D12-DM (Pichia)

binding result [3]: no binding | IC50 [1]: > 100 nM
B7: 2C5 IgG expressed in HEK293 cells (antibody, V domains shown)
VH: QVQLVQSGAEVKKPGASVKVSCKASGYTFTGYYIHWVRQAPGQGLEWMGWINPSSGGTNYAQKFQGRVTMTRDTSASTAFMSLSSLRSEDTAVYYCARSYYDILTGYSRNPFDNWGQGTPVTVSS
VL: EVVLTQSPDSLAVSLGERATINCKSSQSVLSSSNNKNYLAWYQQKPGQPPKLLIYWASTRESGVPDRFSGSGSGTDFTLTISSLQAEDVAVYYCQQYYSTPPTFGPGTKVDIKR
notes: as for B3

binding result [3]: no binding | IC50 [1]: > 100 nM
B10: 1D6 IgG expressed in HEK293 cells (antibody, V domains shown)
VH: QVTLKESGPTLVKPTQTLTLTCTFSGFSLSTDGVGVGWIRQPPGKALEWLALIYGDDDKRYSPSLKSRLTITKDTSKNQVVLTMTNMDPVDTATYYCAHSISNYDILTGHWIAKTYDYWGQGTLVTVSS
VL: QSALTQPPSASGSPGQSVSISCIGSRSDIGYYNYVSWYQQHPGEAPKLIIFDVSKRPSGVPDRFSGSKSGNTASLTVSGLQPEDEADYYCASYGGRNNLLFGGGTQLTVLG
notes: as for B3

Kd [2]: 0.105 nM | koff [2]: 6.5e-05 s⁻¹ | kon [2]: 621000 M⁻¹ s⁻¹
B11: human TACI (R&D Systems receptor chimera) (receptor, UniProt O14836 2-166, looked up, not shown: a dimerising Fc or GST)
chain: SGLGRSRRGGRSRVDQEERFPQGLWTGVAMRSCPEEQYWDPLLGTCMSCKTICNHQSQRTCAAFCRSLSCRKEQGKFYDHLLRDCISCASICGQHPKQCAYFCENKLRSPVNLPPELRRQRSGEVENNSDNSGRYQGLEHRGSEASPALPGLKLSADQVALVYST
notes: also called hTACI; TACI rec Human
